This passage reports Kd, koff and kon results from patent US20170066831A1 (Janssen / Centocor, published 2017).

Experiment [1] has as its target T1, HH-ST2L (human ST2L Domains I and II), wild type (human, UniProt Q01638 19-205).
T1 construct: also called ST2L-D1D2
T1 sequence: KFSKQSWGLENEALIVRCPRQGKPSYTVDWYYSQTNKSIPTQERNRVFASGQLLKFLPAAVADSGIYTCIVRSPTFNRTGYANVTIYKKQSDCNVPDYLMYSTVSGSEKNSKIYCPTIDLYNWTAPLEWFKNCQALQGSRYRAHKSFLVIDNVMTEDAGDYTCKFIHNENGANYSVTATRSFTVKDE
Put plainly: ProteOn SPR, mAb captured by anti-Fc, ST2L-D1D2 injected. Here is the method: (§1) Binding studies were performed using the ProteOn XPR36 Protein Interaction Array system (Bio-Rad) (Bravman T, et al. Anal Biochem 358:281-288, 2006). […] Individual anti-ST2L mAb was then captured by flowing (1 μg/mL) antibody solution prepared in PBS containing 0.5% Nonidet P-40 and 0.5% Na-deoxycholate). The signal in the surfaces reached ˜250 resonance units (RU, 1 RU=1 pg protein/mm²) in the anti-Fc-coated surfaces, confirming that these antibodies specifically capture anti-ST2L mAbs. After 90° rotation of the fluid system, wild type of ST2L-D1D2 or variant proteins (0.5 mg/mL in PBS containing 0.5% Nonidet P-40 and 0.5% Na-deoxycholate) was injected in the parallel flow channels. All of these assays were performed at 25° C. The ST2L-D1D2-dependent signals on the surfaces were obtained by double referencing, subtracting the response observed on surfaces immobilizing the antibodies alone, and the signal observed injecting the vehicle alone (which allows correction for binding-independent responses). The resulting sensorgrams were fitted by the simplest 1:1 interaction model (ProteOn analysis software), to obtain the corresponding association and dissociation rate constants (kₐ and kd).
Residue numbering is according to full length human ST2L of SEQ ID NO: 1.

A further experiment deals with T2, 108QSD110-->PPS.
T2 receptor fragment (Domains I and II): T1 sequence with Q90P, S91P, D92S
Put plainly: SPR, ProteOn XPR36, 25 C; mAb captured on anti-Fc surface, ST2L-D1D2 (HH-ST2L) variant injected; 1:1 model. Here is the method: as §1
In general terms: SPR reads the build-up and loss of mass on a sensor chip optically.

The target in a further experiment is T3, K55E.
T3 construct: also called HH-ST2L (ST2L-D1D2) variant K55E
T3 receptor fragment (Domains I and II): T1 sequence with K37E
The experiment is described as above. As to the method: as §1

In experiment [2] the target is T4, HH-ST2L variant 93NL94 (substitution 93TF94 to 93NL94) (human, UniProt Q01638 19-205).
T4 chain: T1 sequence with T75N, F76L
The description is as above. Here is the method: as §1

In another experiment the target is T5, A78R.
T5 construct: also called HH-ST2L (ST2L-D1D2) variant A78R
T5 receptor fragment (Domains I and II): T1 sequence with A60R
Described as above. Here is the method: as §1

Experiment [3] concerns the target T6, human ST2L extracellular domain with C-terminal His6 tag (human, UniProt Q01638 19-328).
T6 construct: also called huST2L-ECD; ST2L-ECD
T6 sequence: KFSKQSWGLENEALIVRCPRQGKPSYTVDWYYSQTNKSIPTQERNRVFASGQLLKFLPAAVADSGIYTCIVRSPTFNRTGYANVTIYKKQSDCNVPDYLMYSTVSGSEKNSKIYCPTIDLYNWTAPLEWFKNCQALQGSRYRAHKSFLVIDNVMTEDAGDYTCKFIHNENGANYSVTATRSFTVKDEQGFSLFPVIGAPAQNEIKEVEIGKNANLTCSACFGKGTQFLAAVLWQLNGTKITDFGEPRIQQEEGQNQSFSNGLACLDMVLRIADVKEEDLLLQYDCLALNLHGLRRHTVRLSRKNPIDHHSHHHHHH
Briefly: SPR, mAb captured, ST2L-ECD in solution.

In experiment [4] the target is T7, cynomolgus (Macaca fascicularis) ST2L extracellular domain with C-terminal His6 tag (Macaca fascicularis (cynomolgus), UniProt Q01638 19-321 (human entry)).
T7 construct: also called cyno ST2L-ECD; cynoST2L-ECD
T7 chain: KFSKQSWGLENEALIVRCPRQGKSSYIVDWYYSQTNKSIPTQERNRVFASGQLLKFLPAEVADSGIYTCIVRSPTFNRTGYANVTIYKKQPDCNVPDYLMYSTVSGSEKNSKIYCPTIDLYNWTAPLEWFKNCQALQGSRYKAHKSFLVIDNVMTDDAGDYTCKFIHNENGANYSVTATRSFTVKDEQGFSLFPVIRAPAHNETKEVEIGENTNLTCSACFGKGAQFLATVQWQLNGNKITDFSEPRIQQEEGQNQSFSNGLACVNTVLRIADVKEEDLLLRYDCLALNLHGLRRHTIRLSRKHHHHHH
Briefly: SPR, mAb captured, ST2L-ECD in solution.

One may read the Kd as the constant that tells how readily two partners part at equilibrium. Read a high Kd as lower affinity. Usually koff stands for the first-order rate constant of dissociation. A high value points to fast dissociation. The kon is the rate constant with which the complex forms. Read a high kon as faster complex formation.

Residue numbers refer to the chain shown, from its start.

B1: STLM208 (antibody, V domains shown)
VH: EVQLLESGGGLVQPGGSLRLSCAASGFTFSIYDMIWVRQAPGKGLEWVSSIRGEGGGTYYADSVKGRFTISRDNSKNTLYLQMNSLRAEDTAVYYCARDPWSTEGSFFVLDYWGQGTLVTVSS
VL: EIVLTQSPATLSLSPGERATLSCRASQSVDDDLAWYQQKPGQAPRLLIYDASNRATGIPARFSGSGSGTDFTLTISSLEPEDFAVYYCQQYITAPLTFGQGTKVEIK
notes: frameworks VH3-23 / Vk-L6
Turning to B1, the Kd is approximately 0.0108 nM in experiment [1]; 0.01 nM with 108QSD110-->PPS; 0.01 nM with K55E; 0.0104 nM in the experiment with A78R; 0.011 nM in experiment [3]; 0.005 nM in experiment [4]. For the same molecule, the koff with 108QSD110-->PPS was 0.000119 s⁻¹; in the experiment with K55E, 0.000129 s⁻¹; in experiment [2], 0.000625 s⁻¹; in the experiment with A78R it was 0.00013 s⁻¹; in experiment [3] it was 6.76e-05 s⁻¹; in experiment [4], 7.02e-05 s⁻¹. Also, the kon with 108QSD110-->PPS is 1.28e+07 M⁻¹ s⁻¹; with K55E, 1.26e+07 M⁻¹ s⁻¹; in experiment [2], 1.27e+07 M⁻¹ s⁻¹; with A78R, 1.24e+07 M⁻¹ s⁻¹; in experiment [3] it was 5.97e+06 M⁻¹ s⁻¹; in experiment [4] it was 1.39e+07 M⁻¹ s⁻¹.
